The source of these data is PMC12799932, “Development of a VHH that inhibits the binding of neuronal pentraxin 2 to a postsynaptic glutamate receptor, AMPAR” (The Journal of Biological Chemistry, 2025).

What is called stoichiometry N is the number of molecules, sites or subunits per partner or assembly. Usually Kd stands for a measure of binding affinity in units of concentration. For orientation: koff means the first-order rate constant of dissociation. Lower therefore signals a long-lived complex. For orientation: kon means the second-order rate constant of association. Usually IC50 stands for the concentration that gives 50% inhibition. High values mean lower potency, low ones higher potency.

Assay [1] has as its target NP2 CC2 (construct consisting of only the CC2 region of NP2) (human) (UniProt P47972). In words: mass photometry; Two^MP, 200 nM NP, 10 mM Hepes-NaOH pH 7.4, 150 mM NaCl, without CaCl2, 25 °C.
For assay [2] the target is unchanged. Briefly: mass photometry; Two^MP, 200 nM NP, 10 mM Hepes-NaOH pH 7.4, 150 mM NaCl, with 3 mM CaCl2, 25 °C.
Assay [3] deals with VHH N1 (alpaca). In words: ITC; iTC200; 50 μM NP2 PTX from the syringe into 5 μM VHH N1 in the cell; 10 mM Hepes-NaOH pH 7.4, 150 mM NaCl, 0 mM CaCl2, 25 °C. Background: In ITC the heat of successive injections is recorded.
In assay [4] the target is VHH N1 (alpaca). Briefly: ITC; iTC200; 50 μM NP2 PTX from the syringe into 5 μM VHH N1 in the cell; 10 mM Hepes-NaOH pH 7.4, 150 mM NaCl, 3 mM CaCl2, 25 °C.
The target of assay [5] is T1, GluA4 ATD (amino-terminal domain of human GluA4), recombinant (human, UniProt P48058 21-402).
T1 construct: AMPA-type glutamate receptor subunit GluA4, human, amino-terminal domain (ATD); source: Expi293 cells, secreted, purified (Ni-NTA, SEC)
T1 sequence (looked up): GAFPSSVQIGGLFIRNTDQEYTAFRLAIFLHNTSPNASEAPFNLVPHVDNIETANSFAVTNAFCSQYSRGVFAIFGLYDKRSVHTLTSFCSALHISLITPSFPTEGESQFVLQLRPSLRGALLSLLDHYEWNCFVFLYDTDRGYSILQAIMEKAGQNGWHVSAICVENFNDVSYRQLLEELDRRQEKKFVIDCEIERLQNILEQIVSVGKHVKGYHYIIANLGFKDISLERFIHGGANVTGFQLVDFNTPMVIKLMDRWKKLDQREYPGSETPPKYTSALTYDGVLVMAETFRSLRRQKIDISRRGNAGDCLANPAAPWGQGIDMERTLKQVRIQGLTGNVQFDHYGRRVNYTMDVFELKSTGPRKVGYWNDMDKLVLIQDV
Briefly: SPR; Biacore T200; GluA4 ATD (~400 RU) amine-coupled on CM5, NP2 constructs as analytes (31.25-2000 nM NP2 N- and NP2 PTX, 62.5-4000 nM NP2 CC2); 10 mM Hepes-NaOH pH 7.4, 150 mM NaCl, 0.005% Tween-20, with 3 mM CaCl2. As to conditions: both partners purified. A general note: SPR reads the build-up and loss of mass on a sensor chip optically.

Assay [6] deals with NP2 C95S (full-length NP2 with cysteine 95 mutated to serine) (human) (UniProt P47972). In words: mass photometry; Two^MP; equal amounts of VHH N1 and NP2 N- or NP2 C95S, 200 nM each (as monomer); 10 mM Hepes-NaOH pH 7.4, 150 mM NaCl, without CaCl2, 25 °C.
Assay [7] concerns the target NP2 N- (neuronal pentraxin 2 in which CC1 was deleted) (human). The description is as above.
Assay [8] has the same target. In words: SPR; Biacore 8K; NP2 N- or NP2 PTX amine-coupled on CM5, VHH N1 analyte 5-80 nM, single-cycle kinetics; 10 mM Hepes-NaOH pH 7.4, 150 mM NaCl, 0.005% Tween-20, without CaCl2, 25 °C.
Assay [9] concerns the target T2, NP2 PTX (pentraxin domain of neuronal pentraxin 2) (human) (UniProt P47972).
T2 sequence: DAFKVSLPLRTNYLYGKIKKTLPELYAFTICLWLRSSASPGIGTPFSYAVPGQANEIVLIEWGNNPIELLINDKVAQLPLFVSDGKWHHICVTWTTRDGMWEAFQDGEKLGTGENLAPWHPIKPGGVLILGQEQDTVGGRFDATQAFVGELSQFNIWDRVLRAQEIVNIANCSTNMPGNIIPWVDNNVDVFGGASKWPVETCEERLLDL
Described as above.

Assay [10] addresses T2, NP2 PTX (pentraxin domain of neuronal pentraxin 2) (human). In words: SPR; competition; Biacore T200; GluA4 ATD (~800 RU) amine-coupled on CM5, 500 nM NP2 PTX mixed with 0-1000 nM VHH N1 as analyte; 10 mM Hepes-NaOH pH 7.4, 150 mM NaCl, 3 mM CaCl2, 0.005% Tween-20.
Assay [11] concerns the target T3, NP1 PTX (pentraxin domain of neuronal pentraxin 1) (human, UniProt Q15818).
T3 construct: neuronal pentraxin 1 (NP1, Nptx1), human, pentraxin (PTX) domain; also called PTX domain of NP1; source: Expi293 cells, secreted, purified (Ni-NTA, SEC)
Briefly: SPR; Biacore 8K; NP1 PTX or NPR PTX (~600 RU) amine-coupled on CM5, VHH N1 analyte 625-10,000 nM, multicycle kinetics; 10 mM Hepes-NaOH pH 7.4, 150 mM NaCl, 0.005% Tween-20, 3 mM CaCl2, 25 °C. As to conditions: both partners purified.

Assay [12] has as its target T4, NPR PTX (pentraxin domain of neuronal pentraxin receptor) (human, UniProt O95502).
T4 construct: neuronal pentraxin receptor (NPR, Nptxr), human, pentraxin (PTX) domain; also called PTX domain of NPR; source: Expi293 cells, secreted, purified (Ni-NTA, SEC)
The assay is described as above. As to conditions: both partners purified.

The target of assay [13] is NP2 N- (neuronal pentraxin 2 in which CC1 was deleted) (human). Briefly: SPR; Biacore 8K; NP2 N- (~800 RU) or NP2 PTX (~600 RU) amine-coupled on CM5, VHH N1 analyte 1.25-20 nM, single-cycle kinetics; 10 mM Hepes-NaOH pH 7.4, 150 mM NaCl, 0.005% Tween-20, 3 mM CaCl2, 25 °C.
Assay [14] addresses T2, NP2 PTX (pentraxin domain of neuronal pentraxin 2) (human). Described as above.
In assay [15] the target is T5, NP2 PTX D407A (human, UniProt P47972, D407A).
T5 construct: neuronal pentraxin 2 (NP2, Nptx2), human, pentraxin (PTX) domain with D407A; also called D407A_(NP2 PTX); source: Expi293 cells, secreted, purified (same procedure as NP2 PTX WT)
Briefly: SPR; Biacore 8K; NP2 PTX single alanine mutants (~800 RU) amine-coupled on CM5, VHH N1 analyte 1.25-20 nM (D407A) or 62.5-1000 nM (V412A, W419A); 10 mM Hepes-NaOH pH 7.4, 150 mM NaCl, 0.005% Tween-20, 3 mM CaCl2. As to conditions: both partners purified.

The target in assay [16] is T6, HA-NP2 (HA-tagged mouse full-length NP2) (Mus musculus, UniProt O70340).
T6 construct: source: HEK293, transfected, in fixed cells; HEK293 tSA cells, cell supernatant; not shown: HA, N-terminal, kept
In words: immunostaining of cells or tissue; HEK293 cells expressing HA-tagged mouse NPs, fixed with 4% paraformaldehyde, permeabilized, stained with 1 μg/ml VHH N1, detected by rabbit anti-His; anti-HA as expression control. As to conditions: one partner purified.

In assay [17] the target is T7, NP2 N- (neuronal pentraxin 2 in which CC1 was deleted) (human).
T7 chain: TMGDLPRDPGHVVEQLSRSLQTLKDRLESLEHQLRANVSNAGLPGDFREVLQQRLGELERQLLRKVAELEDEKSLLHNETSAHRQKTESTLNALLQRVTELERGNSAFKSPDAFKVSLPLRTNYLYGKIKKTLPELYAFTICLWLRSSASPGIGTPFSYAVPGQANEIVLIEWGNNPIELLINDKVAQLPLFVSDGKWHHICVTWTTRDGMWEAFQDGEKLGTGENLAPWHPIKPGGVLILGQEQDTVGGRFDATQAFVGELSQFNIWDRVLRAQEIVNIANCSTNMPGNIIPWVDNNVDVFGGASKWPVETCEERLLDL
In words: mass photometry; Two^MP, 200 nM NP, 10 mM Hepes-NaOH pH 7.4, 150 mM NaCl, without CaCl2, 25 °C. As to conditions: both partners purified.

Assay [18] concerns the target T7, NP2 N- (neuronal pentraxin 2 in which …). In words: mass photometry; Two^MP, 200 nM NP, 10 mM Hepes-NaOH pH 7.4, 150 mM NaCl, with 3 mM CaCl2, 25 °C. The following applies: both partners purified.

“And” between values parts separate entries of the source, which are not always exact repeats. Identical values can stand only once.

T4 sequence (O95502 292-494): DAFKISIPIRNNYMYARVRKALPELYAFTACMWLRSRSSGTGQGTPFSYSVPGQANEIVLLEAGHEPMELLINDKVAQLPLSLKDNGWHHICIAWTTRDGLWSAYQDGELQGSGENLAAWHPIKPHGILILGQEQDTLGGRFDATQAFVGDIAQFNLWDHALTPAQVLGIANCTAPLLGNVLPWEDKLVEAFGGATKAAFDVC
T3 sequence (Q15818 226-428): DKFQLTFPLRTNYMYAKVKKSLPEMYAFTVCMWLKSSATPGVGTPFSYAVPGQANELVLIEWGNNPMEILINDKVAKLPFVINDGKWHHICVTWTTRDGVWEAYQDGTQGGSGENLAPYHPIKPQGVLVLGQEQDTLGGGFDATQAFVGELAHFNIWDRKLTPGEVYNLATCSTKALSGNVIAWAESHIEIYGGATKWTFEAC

Regarding “NP2 CC2 (construct consisting of only the CC2 region of NP2) (from UniProt P47972 16-431) (domain or fragment)”, the stoichiometry N in [1] and in assay [2] was > 3 in each case.

B1: NP2 PTX (pentraxin domain of neuronal pentraxin 2) (domain or fragment, human)
chain: T2 sequence
notes: neuronal pentraxin 2 (NP2, Nptx2), human, pentraxin (PTX) domain; also called NP2 PTX WT; PTX domain of NP2; source: Expi293 cells, secreted, purified (Ni-NTA, SEC)
With B1, the Kd in assay [3] was 57.5 nM; in assay [4], 19.7 nM; in assay [5], 13600 nM. For the same molecule, the dH was -7.53 kcal/mol in assay [3] and -7.36 kcal/mol in assay [4]. The stoichiometry N in [3] amounted to 0.781; in [4], 0.913.

B2: VHH N1 (VHH)
VHH: QLQLVESGGGLVQAGDSLKLSCIDSGSTFNLYAMGWFRQAPGKEREFVASISRGGGSSYYADSQLKGRFTISRDNAKNTVYLQMNSLKPEDTAVYYCNARAGRYDYWGQGTQVTVSS
notes: selected by phage display from an immune library of an alpaca immunized with NP2 N-; Cloned into the pRA2 vector with a C-terminal His-tag; detected by anti-His in the cell staining; also called N1 VHH; VHH for NP2; source: E. coli BL21 (DE3), purified (Ni-NTA, SEC); not shown: His-tag, C-terminal, kept
For the molecule B2, the stoichiometry N in [6] and in assay [7] was 1 throughout. Also, the Kd in assay [8] stood at 33.5 nM; in [9], 11.6 nM; in [13], 1.41 nM; in assay [14], 1.14 nM. For the same molecule, the koff amounted to 0.00514 s⁻¹ in [8], 0.0249 s⁻¹ in assay [9], 0.00524 s⁻¹ in assay [13] and 0.00208 s⁻¹ in [14]. The kon came out at 156000 M⁻¹ s⁻¹ in [8], 2.21e+06 M⁻¹ s⁻¹ in [9], 3.7e+06 M⁻¹ s⁻¹ in assay [13] and 1.92e+06 M⁻¹ s⁻¹ in assay [14]. This molecule also showed an IC50 in [10] of 216 nM. In addition, the results for the binding result in assay [11], in assay [12] and in assay [16] were “no binding (tested: 10,000 nM)”, “no binding (tested: 10,000 nM)” and “binds”, respectively. Moreover, the “fold change of affinity against NP2 PTX WT” value in assay [15] was 3 times lower.

B3: NP2 N- (neuronal pentraxin 2 in which CC1 was deleted) (domain or fragment)
chain: T7 chain
modifications: Exact start is not in the text (Figures 1B and S1); it is set by convention just after CC1 and its Cys95, keeping CC2, PTX and the native C-terminus. Human is inferred from the D407/V412/W419 …
Consider B3, for which the “stoichiometry N” value in assay [17] was 6 and 3; in assay [18] it was 9 and 12.
